From US20210139559A1

Biological target: human VEGF165 ligand (human) (UniProt P15692)
Experiment: serial dilution mixed with 50 pM human VEGF165 in solution, unbound VEGF165 measured by ELISA

Chain of human VEGF165 ligand (human) (P15692 other isoform, or with tags, fused parts or gaps limits assumed): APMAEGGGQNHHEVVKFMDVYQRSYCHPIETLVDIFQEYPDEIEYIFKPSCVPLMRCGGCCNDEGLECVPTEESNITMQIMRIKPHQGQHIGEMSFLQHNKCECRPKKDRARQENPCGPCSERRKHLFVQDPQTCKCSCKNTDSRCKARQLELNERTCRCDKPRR

IC50: 9.82 pM
Substance: Aflibercept (Fc fusion)
